According to PMC13322254:
Each block holds one substance with its values, some of them ahead of it.

What was measured:
[1] = biological target: SB2F1, SeMet-labeled (Pseudomonas putida | Bradyrhizobium japonicum) (UniProt Q88JB0); test: crystal structure; dark-grown crystals, sitting-drop vapor diffusion, 19 °C, 10 to 12% PEG-8000, 0.2 M NaCl, 0.1 M sodium citrate pH 5.8 to 6.1, 1 mM ATP, 2 mM MgCl2; for SB2F1 also dark-grown crystals illuminated with blue light before data collection
[2] = biological target: SB2F1-I66R, SeMet-labeled (Pseudomonas putida | Bradyrhizobium japonicum) (UniProt Q88JB0); test: crystal structure; crystals grown under continuous blue light (450 nm), 19 °C, 16 to 20% PEG-3350, 0.2 M LiSO4, 0.1 M bicine pH 9.0 to 9.3, 1 mM ATP, 2 mM MgCl2
[3] = biological target: SB2F1-I66R, SeMet-labeled (Pseudomonas putida | Bradyrhizobium japonicum) (UniProt Q88JB0); test: crystal structure; dark-grown crystals, sitting-drop vapor diffusion, 19 °C, 10 to 12% PEG-8000, 0.2 M NaCl, 0.1 M sodium citrate pH 5.8 to 6.1, 1 mM ATP, 2 mM MgCl2; for SB2F1 also dark-grown crystals illuminated with blue light before data collection
[4] = biological target: SB2F1 (Pseudomonas putida | Bradyrhizobium japonicum) (UniProt Q88JB0); test: SEC; analytical SEC, in the dark only, Superdex 200 10/300 GL, 20 mM tris pH 8.0, 40 mM NaCl, 0.5 ml/min
[5] = biological target: SB2F1 (Pseudomonas putida | Bradyrhizobium japonicum) (UniProt Q88JB0); test: SAXS + other: DLS; in solution with ATP and MgCl2, in the dark and after blue light illumination; SAXS at 10 °C in 20 mM Hepes pH 7.5, 150 mM NaCl, 2% glycerol, 2 mM TCEP, 1.5 mM ATP, 3 mM MgCl2, 0.64 to 4.18 mg/ml; DLS at 20 °C, ~1 mg/ml

- stoichiometry N [1]: 2
Substance: SB2F1, SeMet-labeled (from UniProt Q88JB0 1-120) (enzyme)

- stoichiometry N [2]: 2
- stoichiometry N [3]: 2
Substance: SB2F1-I66R, SeMet-labeled (from UniProt Q88JB0 1-120) (enzyme)

- stoichiometry N [4]: 2
- stoichiometry N [5]: 2
Substance: SB2F1 (from UniProt Q88JB0 1-120) (enzyme)
